Among the data in the supplement of paper PMC10567573 are protein stability index values, retold here.

B1: ZNF649 (parent)
chain: DECEKAYFYMSCLVKHKRIHSREK
B2: RAB11B (parent)
chain: AVPTDEARAFAEKNNLSFIETSAL
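Further: lentivirally expressed fusions sorted by FACS into six bins by GFP to DsRed ratio, PSI derived from sequencing read proportions per bin multiplied by bin number.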

Variants of B1 are the subject of one series. Nature of the series: protein stability index of a GFP-peptide fusion (GPS, HEK-293T) (PSI 1-6); higher = more stable. Conditions: c terminus: a fixed tail appended.
Take LECEKAYFYMSCLVKHKRIHSREK [D1L]: the protein stability index stood at 1.98.
Still for that read-out and setting: the value for CECEKAYFYMSCLVKHKRIHSREK [D1C] was 1.98; that for PECEKAYFYMSCLVKHKRIHSREK [D1P] was 2.44.
For HECEKAYFYMSCLVKHKRIHSREK [D1H], the protein stability index worked out at 2.61.
Same read-out and setting: the figure for IECEKAYFYMSCLVKHKRIHSREK [D1I] is 1.98; for QECEKAYFYMSCLVKHKRIHSREK [D1Q] it is 2.44.
The same measure, in the same setting: the figure for AECEKAYFYMSCLVKHKRIHSREK [D1A] is 2.41; for NECEKAYFYMSCLVKHKRIHSREK [D1N] it is 2.72.
With KECEKAYFYMSCLVKHKRIHSREK [D1K], the protein stability index came out at 2.
Still for that read-out and setting: the value for EECEKAYFYMSCLVKHKRIHSREK [D1E] was 2.47; that for FECEKAYFYMSCLVKHKRIHSREK [D1F] was 1.98.
As for MECEKAYFYMSCLVKHKRIHSREK [D1M], the protein stability index is 2.06.
With GECEKAYFYMSCLVKHKRIHSREK [D1G], the protein stability index amounted to 1.92.

The variants in the next series derive from B2. The series is described as above. Conditions: c terminus: a fixed tail appended.
For the variant AVPTDEAWAFAEKNNLSFIETSAL [R8W], the protein stability index is 2.94.
The same measure, in the same setting: the figure for AVPTDEASAFAEKNNLSFIETSAL [R8S] is 2.46.
The same measure, in the same setting: the value for AVPTDEAAAFAEKNNLSFIETSAL [R8A] was 2.77.
As to AVPTDEATAFAEKNNLSFIETSAL [R8T], the protein stability index was 2.67.
Still for that read-out and setting: the value for AVPTDEADAFAEKNNLSFIETSAL [R8D] was 3.37.
Still for that read-out and setting: the figure for AVPTDEAEAFAEKNNLSFIETSAL [R8E] is 3.31; for AVPTDEAKAFAEKNNLSFIETSAL [R8K] it is 3.08; for AVPTDEANAFAEKNNLSFIETSAL [R8N] it is 3.06.
The same measure, in the same setting: the figure for AVPTDEAYAFAEKNNLSFIETSAL [R8Y] is 3.12; for AVPTDEALAFAEKNNLSFIETSAL [R8L] it is 2.33.
For the variant AVPTDEAGAFAEKNNLSFIETSAL [R8G], the protein stability index came to 3.22.
On the same count and under the same terms, the figure for AVPTDEARAFAEKTNLSFIETSAL [N14T] is 2.88; for AVPTDEARAFAEKENLSFIETSAL [N14E] it is 4.35; for AVPTDEARAFAEKCNLSFIETSAL [N14C] it is 2.18.
The same measure, in the same setting: the value for AVPTDEARAFAEKANLSFIETSAL [N14A] was 2.48; that for AVPTDEARAFAEKPNLSFIETSAL [N14P] was 2.53.
Still for that read-out and setting: the value for AVPTDEARAFAEKQNLSFIETSAL [N14Q] was 3.47; that for AVPTDEARAFAEKYNLSFIETSAL [N14Y] was 2.53; that for AVPTDEARAFAEKGNLSFIETSAL [N14G] was 2.73.
AVPTDEARAFAEKDNLSFIETSAL [N14D]: the protein stability index was determined as 3.96.
The same measure, in the same setting: the figure for AVPTDEARAFWEKNNLSFIETSAL [A11W] is 2.48; for AVPTDEARAFTEKNNLSFIETSAL [A11T] it is 2.71.
Turning to AVPTDEARAFEEKNNLSFIETSAL [A11E], the protein stability index is 3.69.
Same read-out and setting: the figure for AVPTDEARAFFEKNNLSFIETSAL [A11F] is 2.69.
The same measure, in the same setting: the value for AVPWDEARAFAEKNNLSFIETSAL [T4W] was 2.21; that for AVPVDEARAFAEKNNLSFIETSAL [T4V] was 2.78.
As for AVPPDEARAFAEKNNLSFIETSAL [T4P], the protein stability index came out at 2.5.
Still for that read-out and setting: the figure for AVPLDEARAFAEKNNLSFIETSAL [T4L] is 2.33; for AVPQDEARAFAEKNNLSFIETSAL [T4Q] it is 3.05.
For AVPTDEARAFAEKNNLSFIETVAL [S22V], the protein stability index was 3.19.
On the same count and under the same terms, the value for AVPTDEARAFAEKNNLSFIETAAL [S22A] was 2.71; that for AVPTDEARAFAEKNNLSFIETEAL [S22E] was 4.06.
Same read-out and setting: the figure for AVPTDEARAFAEKNNLSFIETHAL [S22H] is 2.74.
Turning to AVPTDEARAFAEKNNLSFIETDAL [S22D], the protein stability index came to 4.17.
As for AVPTDEARAFAEKNNLSFIETKAL [S22K], the protein stability index was 3.69.
For the variant AVPTDEARAFAWKNNLSFIETSAL [E12W], the protein stability index was determined as 1.6.
Same read-out and setting: the figure for AVPTDEARAFAAKNNLSFIETSAL [E12A] is 2.89.
The same measure, in the same setting: the value for AVPTDEARAFAKKNNLSFIETSAL [E12K] was 1.93; that for AVPTDEARAFANKNNLSFIETSAL [E12N] was 2.02.
As to AVPTDEARAFASKNNLSFIETSAL [E12S], the protein stability index worked out at 2.08.
The same measure, in the same setting: the figure for AVPTDEARAFAFKNNLSFIETSAL [E12F] is 1.74; for AVPTDEARAFAYKNNLSFIETSAL [E12Y] it is 1.93; for AAPTDEARAFAEKNNLSFIETSAL [V2A] it is 2.55.
Turning to ALPTDEARAFAEKNNLSFIETSAL [V2L], the protein stability index was determined as 3.28.
For the variant AQPTDEARAFAEKNNLSFIETSAL [V2Q], the protein stability index worked out at 2.34.
On the same count and under the same terms, the figure for AMPTDEARAFAEKNNLSFIETSAL [V2M] is 3.41; for APPTDEARAFAEKNNLSFIETSAL [V2P] it is 3.2; for AGPTDEARAFAEKNNLSFIETSAL [V2G] it is 2.74.
On to AWPTDEARAFAEKNNLSFIETSAL [V2W], for which the protein stability index amounted to 2.52.
The same measure, in the same setting: the figure for AKPTDEARAFAEKNNLSFIETSAL [V2K] is 2.52.
Same read-out and setting: the value for AVPTDSARAFAEKNNLSFIETSAL [E6S] was 2.2.
Same read-out and setting: the figure for AVPTDTARAFAEKNNLSFIETSAL [E6T] is 2.
As to AVPTDMARAFAEKNNLSFIETSAL [E6M], the protein stability index came to 2.19.
Same read-out and setting: the value for AVPTDFARAFAEKNNLSFIETSAL [E6F] was 1.66.
On to AVPTDRARAFAEKNNLSFIETSAL [E6R], for which the protein stability index amounted to 1.86.
Turning to AVPTDGARAFAEKNNLSFIETSAL [E6G], the protein stability index worked out at 2.58.
Regarding AVPTDLARAFAEKNNLSFIETSAL [E6L], the protein stability index worked out at 2.32.
Same read-out and setting: the figure for AVPTDEARAFAEKNNLSFIEISAL [T21I] is 2.3; for AVPTDEARAFAEKNNLSFIEQSAL [T21Q] it is 4.12.
On the same count and under the same terms, the value for AVPTDEARAFAEKNNLSFIENSAL [T21N] was 2.86; that for AVPTDEARAFAEKNNLSFIESSAL [T21S] was 3.64.
AVPTDEARAFAEKNNLSFIEHSAL [T21H]: the protein stability index worked out at 3.06.
In the case of AVPTDEARAFAEKNNLSFIEVSAL [T21V], the protein stability index stood at 1.52.
Still for that read-out and setting: the value for AVPTDEARAFAEKNNLSFIEGSAL [T21G] was 2.38; that for AVPTDEARAFAEKNNLSFIEFSAL [T21F] was 2.34; that for AVPTDEARAFAEKNNLSFIEESAL [T21E] was 4.67.
On the same count and under the same terms, the figure for AVPTDEARAFAEKNNLSFIERSAL [T21R] is 3.42; for AVLTDEARAFAEKNNLSFIETSAL [P3L] it is 2.28.
Still for that read-out and setting: the value for AVCTDEARAFAEKNNLSFIETSAL [P3C] was 2.77; that for AVSTDEARAFAEKNNLSFIETSAL [P3S] was 2.57; that for AVKTDEARAFAEKNNLSFIETSAL [P3K] was 2.44.
With AVMTDEARAFAEKNNLSFIETSAL [P3M], the protein stability index stood at 2.43.
On to AVRTDEARAFAEKNNLSFIETSAL [P3R], for which the protein stability index turned out to be 2.1.
Take AVPTDEARAFAEKNNLSFPETSAL [I19P]: the protein stability index is 5.04.
For the variant AVPTDEARAFAEKNNLSFEETSAL [I19E], the protein stability index amounted to 4.59.
Take AVPTDEARAFAEKNNLSFRETSAL [I19R]: the protein stability index amounted to 4.54.
On the same count and under the same terms, the value for AVPTYEARAFAEKNNLSFIETSAL [D5Y] was 2.08.
Regarding AVPTREARAFAEKNNLSFIETSAL [D5R], the protein stability index amounted to 2.07.
The same measure, in the same setting: the value for AVPTQEARAFAEKNNLSFIETSAL [D5Q] was 2.42; that for AVPTPEARAFAEKNNLSFIETSAL [D5P] was 1.89.
For the variant AVPTIEARAFAEKNNLSFIETSAL [D5I], the protein stability index came out at 2.15.
